According to patent US20110312505A1 (University of Texas, published 2011):

Experiments:
[1] = molecular target: T1, human B cell regulator of IgH transcription (BRIGHT) (human, UniProt Q99856 1-593, limits assumed); experiment: ELISA, antigen-coated plate, titration of purified IgG, anti-human Fc-HRP
T1 construct: Recombinant, made in bacteria
T1 sequence (looked up): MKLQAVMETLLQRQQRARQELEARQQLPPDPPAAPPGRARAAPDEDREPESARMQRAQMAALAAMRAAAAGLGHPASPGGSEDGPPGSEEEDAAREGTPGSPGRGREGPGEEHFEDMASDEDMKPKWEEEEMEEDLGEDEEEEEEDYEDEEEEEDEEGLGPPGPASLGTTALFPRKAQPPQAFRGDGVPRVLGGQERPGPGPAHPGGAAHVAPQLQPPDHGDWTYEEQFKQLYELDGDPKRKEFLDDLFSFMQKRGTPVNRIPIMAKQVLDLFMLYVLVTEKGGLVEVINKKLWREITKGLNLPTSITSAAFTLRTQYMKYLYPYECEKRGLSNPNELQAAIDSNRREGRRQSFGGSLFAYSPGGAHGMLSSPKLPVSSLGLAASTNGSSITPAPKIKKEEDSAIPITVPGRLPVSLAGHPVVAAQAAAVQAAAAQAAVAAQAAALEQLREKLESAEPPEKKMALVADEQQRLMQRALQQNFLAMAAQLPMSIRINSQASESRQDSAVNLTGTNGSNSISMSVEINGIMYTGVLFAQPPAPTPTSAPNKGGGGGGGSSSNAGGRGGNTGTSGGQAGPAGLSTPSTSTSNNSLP
Protocol: (§1) Purified IgGs were added to the plate at various concentrations for 1.5 h and washed with PBS/0.05% Tween-20. A polyclonal antibody of goat anti-human Fc region conjugated HRP was used for detection and developed with TMB substrate and stopped with 2N H₂SO₄. The absorbance was measured at 450 nm with a 96 well spectrophotometer. A titration curve of purified IgGs was used to determine an approximate IC50 for binding (Table 8).

[2] = molecular target: T2, human complement protein C1s (human, UniProt P09871 16-688); experiment: as above
T2 construct: Purified protein, bought; coated on ELISA plates, amine-coupled to a CM5 chip, or native in human serum (immunoprecipitation); also called human complement serine protease
T2 sequence (looked up): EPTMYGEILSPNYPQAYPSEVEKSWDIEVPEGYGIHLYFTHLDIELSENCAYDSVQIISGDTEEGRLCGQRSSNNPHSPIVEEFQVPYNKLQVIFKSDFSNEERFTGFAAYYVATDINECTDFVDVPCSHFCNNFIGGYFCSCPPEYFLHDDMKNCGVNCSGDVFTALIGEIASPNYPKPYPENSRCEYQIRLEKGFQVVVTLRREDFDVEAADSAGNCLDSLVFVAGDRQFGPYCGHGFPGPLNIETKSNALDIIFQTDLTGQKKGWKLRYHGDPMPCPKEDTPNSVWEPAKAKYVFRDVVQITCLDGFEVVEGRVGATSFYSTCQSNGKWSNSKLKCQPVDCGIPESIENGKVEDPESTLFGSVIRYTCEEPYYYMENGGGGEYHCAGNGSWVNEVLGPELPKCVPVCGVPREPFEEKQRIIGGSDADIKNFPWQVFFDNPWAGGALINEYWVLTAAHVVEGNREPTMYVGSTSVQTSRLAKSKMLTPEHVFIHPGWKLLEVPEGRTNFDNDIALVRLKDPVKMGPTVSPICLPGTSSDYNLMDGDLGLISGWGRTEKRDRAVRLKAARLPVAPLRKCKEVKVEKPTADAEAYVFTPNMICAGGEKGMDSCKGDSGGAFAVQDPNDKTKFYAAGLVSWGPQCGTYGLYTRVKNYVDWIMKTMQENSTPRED
Protocol: as §1

[3] = molecular target: T2, human complement protein C1s; experiment: ELISA, E. coli whole cell lysate with scFv from combinatorial library
[4] = molecular target: T2, human complement protein C1s; experiment: SPR (BIAcore 3000), C1s amine-coupled to CM5 chip, antibody injected, bivalent model
Protocol: FIGS. 13A-13B. Kinetic binding analysis of purified anti-C1s IgGs by Surface Plasmon Resonance (Biacore). (FIG. 13A) Anti-C1s 2.1L-2.1HB was injected onto a chip with immobilized C1s at 25 nM, 50 nM, 100 nM or 200 nM and (FIG. 13B) As above for anti-C1s 2.3L-2.2H injected at 2.625 nM, 5.25 nM, 10.5 nM or 21 nM.
(§2) Surface Plasmon Resonance (Biacore) C1s was covalently immobilized on a CM5 chip (GE healthcare, NJ) at a level of approximately 200 response units via standard amine coupling chemistry as described in the manufacturer's protocol. BSA was similarly coupled for baseline correction. All kinetic analyses were performed at 25° C. in HBS-EP (10 mM HEPES, 150 mM NaCl, 50 μM EDTA, 0.005% P-20, pH 7.4) on a BIAcore 3000 (GE healthcare, NJ). Antibodies were injected over immobilized antigen at a flow rate of 50 μl/min or 100 μl/min and the chip was regenerated with a single 10s injection of 20 mM NaOH. Each sensogram was run in duplicate. Kinetic and equilibrium constants were determined by global fitting to a bivalent model using BIAevaluation software (GE healthcare, NJ).

[5] = molecular target: T2, human complement protein C1s; experiment: SPR (Biacore), IgG on immobilized C1s
Text: Antibodies were recombinantly expressed and purified as monomeric scFv fragments in E. coli and as full-length IgG antibodies in HEK 293F cells. […] Furthermore, the antibodies were suitable for functional assays, such as sandwich ELISA and immunoprecipitation of C1s from human serum (FIGS. 14-15).
as §2

B1: anti-BRIGHT IgG 1.2L-1.1H (antibody, V domains shown)
VH: EVKLVESGGDLVKPGGSLKLSCAASGFTFSSYGMSWVRQTPDKRLEWVATISSGGSYTYYPDSVKGRFTISRDNAKNTLYLQMSSLKSEDTAMYYCARHDYGNYVDYWGQGTTLTVSS
VL: not shown
notes: Full-length IgG with human kappa and human IgG1 constant regions (pMAZ vectors, HEK293-F); also called BRIGHT 1.2L-1.1H
- EC50 (half-maximal binding) [1]: 1000 nM

B2: anti-C1s IgG 2.3L-2.3H (antibody, V domains shown)
VH: QVQLQQSGTVLARPGASVKMSCKASGYTFTSYWMHWVKQRPGQGLEWIGAIYPGNSDTSYNQKFKGKAKLTAVTSTSTAYMELSSLTNEDSAVYYCTRSDGYYYFDYWGQGTTLTVSS
VL: not shown
notes: Full-length IgG with human kappa and human IgG1 constant regions (pMAZ vectors, HEK293-F); also called C1s 2.3L-2.3H
- EC50 (half-maximal binding) [2]: 100 nM

B3: anti-C1s scFv 2.3L-2.2H (scFv)
scFv: DIVMTQSPLTLTVTIGQPASISCKSSQSLLDSDGKTYLNWLLQRPGQSPKRLIYLVSKLDSGVPDRFTGSGSGTEFTLKTSRVEAEDLGVYYCWQGTHFPHFGGGTKLEIKGGGGSGGGGSGGGGSGGGGSEVKLVESGGGFVKPGGSLKLSCAASGFTFSTYGMSWVRQTPEKRLEWVASISAGGTTYYSDSVKGRFTISRDNARNILYLQMSSLRSEDTAMYYCARWLLLAYWGQGTLVTSSA
notes: scFv in E. coli whole cell lysate; also called C1s-2 3L-2H
- ELISA Signal (OD450 on antigen-coated wells relative to BSA-coated wells) [3]: 4.22 fold over BSA wells

B4: anti-C1s scFv 2.3L-2.3H (scFv)
scFv: DIVMTQSPLTLTVTIGQPASISCKSSQSLLDSDGKTYLNWLLQRPGQSPKRLIYLVSKLDSGVPDRFTGSGSGTEFTLKTSRVEAEDLGVYYCWQGTHFPHFGGGTKLEIKGGGGSGGGGSGGGGSGGGGSQVQLQQSGTVLARPGASVKMSCKASGYTFTSYWMHWVKQRPGQGLEWIGAIYPGNSDTSYNQKFKGKAKLTAVTSTSTAYMELSSLTNEDSAVYYCTRSDGYYYFDYWGQGTTLTVSSA
notes: scFv in E. coli whole cell lysate; also called C1s-2 3L-3H
- ELISA Signal (OD450 on antigen-coated wells relative to BSA-coated wells) [3]: 8.8 fold over BSA wells

B5: anti-C1s scFv 2.2L-2.2H (scFv)
scFv: DIVMTQSPASLAVSLGQRATISCRASESVDSYGNSFMHWYQQKPGQPPKLLIYRASNLESGIPARFSGSGSRTDFTLTINPVEADDVTTYYCQQSNEDPWTFGGGTKLEIKGGGGSGGGGSGGGGSGGGGSEVKLVESGGGFVKPGGSLKLSCAASGFTFSTYGMSWVRQTPEKRLEWVASISAGGTTYYSDSVKGRFTISRDNARNILYLQMSSLRSEDTAMYYCARWLLLAYWGQGTLVTSSA
notes: scFv in E. coli whole cell lysate; also called C1s-2 2L-2H
- ELISA Signal (OD450 on antigen-coated wells relative to BSA-coated wells) [3]: 3.1 fold over BSA wells

B6: anti-C1s IgG 2.1L-2.1H (antibody, V domains shown)
VH: QVQLQQSGAELARPGASVKMSCKASGYTFTSYTMHWVKQRPGQGLEWIGYINPSSGYTNYNQKFKDKATLTADKSSSTANMQLSSLTSEDSAVYYCARSDRYDGYFDYWGQGTTLTVSS
VL: DVLMTQTPLSLPVSLGDQASISCRSSQSIVHSNGDTYLEWYLQKPGQSPKLLVYKLSNRFSGVPDRFSGSGSGTDFTLKISRVEAEDLGVYYCFQGSHVPLTFGAGTKLEIK
notes: also called C1s 2.1L-2.1H
- EC50 (half-maximal binding) [2]: 50 nM

B7: anti-C1s IgG 2.3L-2.2H (antibody, V domains shown)
VH: EVKLVESGGGFVKPGGSLKLSCAASGFTFSTYGMSWVRQTPEKRLEWVASISAGGTTYYSDSVKGRFTISRDNARNILYLQMSSLRSEDTAMYYCARWLLLAYWGQGTLVTSSA
VL: not shown
notes: Full-length IgG with human kappa and human IgG1 constant regions (pMAZ vectors, HEK293-F); also called C1s 2.3L-2.2H; 2.3L-2.2H (IgG)
- Kd [4]: 0.43 nM
- koff [4]: 0.00019 s⁻¹
- kon [4]: 450000 M⁻¹ s⁻¹
- EC50 (half-maximal binding) [2]: 0.43 nM

B8: anti-C1s IgG 2.2L-2.2H (antibody, V domains shown)
VH: B7 VH
VL: DIVMTQSPASLAVSLGQRATISCRASESVDSYGNSFMHWYQQKPGQPPKLLIYRASNLESGIPARFSGSGSRTDFTLTINPVEADDVTTYYCQQSNEDPWTFGGGTKLEIK
notes: Full-length IgG made in HEK 293F cells; also called C1s 2.2L with 2.2H
- Kd [5]: ~500 nM
